Twelve molecules from patent US20070003549A1 (published 2007) can be followed below.

Residue numbers refer to the chain shown, from its start.

First the molecules themselves.
B1: TAR15-23 (other)
VH: EVQLLESGGGLVQPGGSLRLSCAASGFTFKAYEMGWVRQAPGKGLEWVSGISPNGGWTYYADSVKGRFTISRDNSKNTLYLQMNSLRAEDTAVYYCAKESISPTPLGFDYWGQGTLVTVSS
notes: Human dAb, VH single variable domain
B2: TAR15-30 (other)
VH: EVQLLESGGGLVQPGGSLRLSCAASGFTFSDYAMYWVRQAPGKGLEWVSSITARGFITYYADSVKGRFTISRDNSKNTLYLQMNSLRAEDTAVYYCAKSGFPHKSGSNYFDYWGQGTLVTVSS
notes: as for B1
B3: TAR15-7 (other)
VH: EVQLLESGGGLVQPGGSLRLSCAASGFTFNKYPMMWVRQAPGKGLEWVSEISPSGQDTYYADSVKGRFTISRDNSKNTLYLQMNSLRAEDTAVYYCAKNPQILSNFDYWGQGTLVTVSS
notes: as for B1
B4: TAR15-24 (other)
VH: EVQLLESGGGLVQPGGSLRLSCAASGFTFTGYEMGWVRQAPGKGLEWVSYISRGGRWTYYADSVKGRFTISRDNSKNTLYLQMNSLRAEDTAVYYCAKSDTMFDYWGQGTLVTVSS
notes: as for B1
B5: TAR15-25 (other)
VH: B4 VH with T30S, G31A, Y50F, R53G, S99Y, D100S, T101E, M102D
notes: as for B1
B6: TAR15-27 (other)
VH: EVQLLESGGGLVQPGGSLRLSCAASGFTFQFYKMGWVRQAPGKGLEWVSSISSVGDATYYADSVKGRFTISRDNSKNTLYLQMNSLRAEDTAVYYCAKMGGGPPTYVVYFDYWGQGTLVTVSS
notes: as for B1
B7: TAR15-6 (other)
VH: EVQLLESGGGLVQPGGSLRLSCAASGFTFHLYDMMWVRQAPGKGLEWVSFIGGDGLNTYYADSVKGRFTISRDNSKNTLYLQMNSLRAEDTAVYYCAKAGTQFDYWGQGTLVTVSS
notes: as for B1
B8: TAR15-8 (other)
VH: EVQLLESGGGLVQPGGSLRLSCAASGFTFQWYPMWWVRQAPGKGLEWVSLIEGQGDRTYYADSVKGRFTISRDNSKNTLYLQMNSLRAEDTAVYYCAKAGDRTAGSRGNSFDYWGQGTLVTVSS
notes: as for B1
B9: TAR15-29 (other)
VH: EVQLLESGGGLVQPGGSLRLSCAASGFTFGEYGMYWVRQAPGKGLEWVSSISERGRLTYYADSVKGRFTISRDNSKNTLYLQMNNLRAEDTAVYYCAKSALSSEGFSRSFDYWGQGTLVTVSS
notes: as for B1
B10: TAR15-5 (other)
VH: EVQLLESGGGLVQPGGSLRLSCAASGFTFRLYDMVWVRQAPGKGLEWVSYISSGGSGTYYADSVKGRFTISRDNSKNTLYLQMNSLRAEDTAVYYCAKAGGRASFDYWGQGTLVTVSS
notes: as for B1
B11: IgG-like format No. 10 (DOM15-26 VH on CH / DOM16-52 VH on CK) (bispecific antibody, V domains shown)
V domain 1: EVQLLESGGGLVQPGGSLRLSCAASGFTFGAYPMMWVRQAPGKGLEWVSEISPSGSYTYYADSVKGRFTISRDNSKNTLYLQMNSLRAEDTAVYYCAKDPRKFDYWGQGTLVTVSS
V domain 2: EVQLLESGGGLVQPGGSLRLSCAASGFTFAEQPMTWARQAPGKGLEWVSSISSFGDLTYYADSVKGRFTISRDNSKNTLYLQMNSLRAEDTAVYYCAKGVYRISRFDYWGQGTLVTVSS
notes: IgG-like format; also called IgG 10
B12: IgG-like format No. 19 (DOM15-26 VH on CH / Dummy VK on CK) (antibody, V domains shown, not shown: a dimerising Fc or GST)
VH: B11 V domain 1
notes: IgG-like format; also called IgG 19

A word on the IC50: it is the concentration needed to halve the response being measured. A higher IC50 goes with weaker potency in that assay.

For one assay, the target named is T1, VEGF-165 (human, UniProt P15692-4 27-191).
T1 construct: also called vascular endothelial growth factor
T1 sequence (P15692 other isoform, or with tags, fused parts or gaps limits assumed): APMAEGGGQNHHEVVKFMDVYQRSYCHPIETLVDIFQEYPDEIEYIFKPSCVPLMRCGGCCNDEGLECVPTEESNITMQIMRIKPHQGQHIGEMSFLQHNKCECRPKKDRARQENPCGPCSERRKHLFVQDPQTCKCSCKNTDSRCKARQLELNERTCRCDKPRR
In words: supernatant VEGFR2 RBA (ELISA); + = more than 50% reduction of VEGF binding to VEGF R2/Fc; dAb assayed at 50 nM. For orientation: In an ELISA, binding on a coated surface is turned into a signal by an enzyme label.
Consider B1, for which the binding result is recorded as “binds”.
For the molecule B2, the binding result is “binds”.
Still for that read-out and setting: then B3, with “binds”.
As for B4, the binding result was “binds”.
With B5, the binding result is “binds”.
B6: the binding result is given as “binds”.
On to B7, for which the binding result is reported as “binds”.
Same read-out and setting: then B8, with “binds”; and B9, with “binds”.
For the molecule B10, the binding result was “binds”.

For the next assay, the target named is T1, VEGF-165. Kind of assay: VEGF RBA (ELISA): inhibition of VEGF binding to VEGF receptor (R1 or R2 not specified); IgG-like format.
As to B11, the half-maximal inhibitory concentration (IC50) was 0.05 nM.
Consider B12, for which the IC50 was found to be 4.8 nM.

A further assay has as its target T1, VEGF-165. In words: cell-based or functional assay.
Consider B11, for which the “VEGF (bioassay) ND50” value worked out at 0.2 nM.
